Measured values: patent US9523084B2, “Phosphodeoxyribosyl transferase mutant enzymes and uses thereof” (Centre National De La Recherche Scientifique, priority 2012, dated 2016)

Tests used:
[1] = Standard enzyme assay (HPLC): specific activities of PDT variants with natural purines and pyrimidines; format: biochemical; conditions: for Specific activity: donor 3 mM, acceptor 1 mM; for factor of enhancement of deoxyribose 5-phosphate transferase activity between C and A: upon substitution of F13 to arginine (PDTM3 from PDTM1, PDTM4 from PDTM2)
Experimental: (§1) The standard assay (“first protocol for enzyme assay”) for the different NDTs consisted of 5-15 μg of NDT in 50 mM MES buffer pH 6.0, dNxP (dNMP, or dNDP or dNTP) 3 mM and a base 1 mM in a total volume of 50 μL. Assays were incubated for 60 min at 37° C. The products of the reactions were analyzed each 7 min by Rapid resolution high performance liquid chromatography using a reverse-phase column (ZORBAX Eclipse XDB-C18 2.1*50 mm 1.8 μM) with a flow rate of 0.25 ml/min and a linear gradient of 1-12% CH3CN (2-25% CH3CN or 1-90% CH3CN) in 20 mM triethylammonium acetate, pH 7.5, buffer for 7 min. The low resolution mass spectra of the newly synthesized deoxyribonucleotides were obtained on an Agilent 1200 series LC/MS 6120 quadrupole system using an atmospheric electrospray ionization system.
Unless specifically mentioned, the results presented hereafter have been obtained by using the first protocol for performing the enzyme assay.

[2] = In vitro synthesis of deoxynucleotide analogues: specific activities; format: biochemical
Experimental: as §1
The donor concentration was 3 mM and the acceptor 1 mM except for dCTP 2 mM 5-BrU 1 mM and dAMP 2 mM 5-FU 1 mM. Activities are expressed in nanomoles of deoxynucleotides synthesized per min per mg of protein.

[3] = dAMP + 5-FU → A + 5-F-dUMP, dAMP 2 mM 5-FU 1 mM
[4] = dCMP + 2,6-D → C + 2,6-DMP, donor 3 mM, acceptor 1 mM
[5] = dCMP + 2,6-chloropurine → C + 2,6-dichloropurine 2′-deoxyribose 5′-monophosphate, donor 3 mM, acceptor 1 mM
[6] = dCMP + 5-BrU → C + 5-Br-dUMP, donor 3 mM, acceptor 1 mM
[7] = dCMP + 6-chloropurine → C + 6-chloropurine 2′-deoxyribose 5′-monophosphate, donor 3 mM, acceptor 1 mM

Molecule	Specific activity ([1]; dAMP + C ⇄ dCMP + A)	Specific activity ([1]; dAMP + Hx ⇄ dIMP + A)	Specific activity ([1]; dCMP + A ⇄ dAMP + C)	Specific activity ([1]; dCMP + T ⇄ dTMP + C)	Specific activity ([1]; dGMP + A ⇄ dAMP + G)	further results
PDTM3: NDT mutant R13 S92, SEQ ID NO:5 (protein, PDTM3 enzyme mutant) MPKKTIYFGAGWRTDRQNKAYKEAMEALKENPTIDLENSYVPLDNQYKGIRVDEHPEYLHDKVWATATYNNDLNGIKTNDIMLGVYIPDEESVGLGMELGYALSQGKYVLLVIPDEDYGKPINLMSWGVSDNVIKMSQLKDFNFNKPRFDFYEGAVY	34.7 nanomoles of deoxynucleotides synthesized per min per mg of protein	2 nanomoles of deoxynucleotides synthesized per min per mg of protein	79.7 nanomoles of deoxynucleotides synthesized per min per mg of protein	18.2 nanomoles of deoxynucleotides synthesized per min per mg of protein	8.5 nanomoles of deoxynucleotides synthesized per min per mg of protein	fold lower activity than between C and A ([1]; transfer of deoxyribose 5-phosphate between A and C): two-fold; fold lower activity than between C and A ([1]; transfer of deoxyribose 5-phosphate between C and T): 4 fold; factor of enhancement of deoxyribose 5-phosphate transferase activity between C and A [1]: 50
PDTM2: NDT double mutant D92S, N123S, SEQ ID NO:4 (protein, PDTM2 enzyme mutant) MPKKTIYFGAGWFTDRQNKAYKEAMEALKENPTIDLENSYVPLDNQYKGIRVDEHPEYLHDKVWATATYNNDLNGIKTNDIMLGVYIPDEESVGLGMELGYALSQGKYVLLVIPDEDYGKPISLMSWGVSDNVIKMSQLKDFNFNKPRFDFYEGAVY			1.7 nanomoles of deoxynucleotides synthesized per min per mg of protein			
PDTM1: NDT single mutant D92S, SEQ ID NO:3 (protein, PDTM1 enzyme mutant) MPKKTIYFGAGWFTDRQNKAYKEAMEALKENPTIDLENSYVPLDNQYKGIRVDEHPEYLHDKVWATATYNNDLNGIKTNDIMLGVYIPDEESVGLGMELGYALSQGKYVLLVIPDEDYGKPINLMSWGVSDNVIKMSQLKDFNFNKPRFDFYEGAVY			1.8 nanomoles of deoxynucleotides synthesized per min per mg of protein			
PDTM4: NDT mutant R13 S92 S123, SEQ ID NO:6 (protein, PDTM4 enzyme mutant) MPKKTIYFGAGWRTDRQNKAYKEAMEALKENPTIDLENSYVPLDNQYKGIRVDEHPEYLHDKVWATATYNNDLNGIKTNDIMLGVYIPDEESVGLGMELGYALSQGKYVLLVIPDEDYGKPISLMSWGVSDNVIKMSQLKDFNFNKPRFDFYEGAVY	77.6 nanomoles of deoxynucleotides synthesized per min per mg of protein	<0.1 nanomoles of deoxynucleotides synthesized per min per mg of protein	170 nanomoles of deoxynucleotides synthesized per min per mg of protein	52 nanomoles of deoxynucleotides synthesized per min per mg of protein	57 nanomoles of deoxynucleotides synthesized per min per mg of protein	Specific activity [2, 3]: 43 nanomoles of deoxynucleotides synthesized per min per mg of protein; Specific activity [2, 4]: 96 nanomoles of deoxynucleotides synthesized per min per mg of protein; Specific activity [2, 5]: 32 nanomoles of deoxynucleotides synthesized per min per mg of protein; Specific activity [2, 6]: 35 nanomoles of deoxynucleotides synthesized per min per mg of protein; Specific activity [2, 7]: 24 nanomoles of deoxynucleotides synthesized per min per mg of protein; factor of enhancement of deoxyribose 5-phosphate transferase activity between C and A [1]: 50; activity relative to PDTM3 ([1]; whatever the couple of bases tested): two times more active than PDTM3
NDTWT: wild-type nucleoside deoxyribosyltransferase of Lactobacillus leichmannii, SEQ ID NO:1 (F13E91D92V93N123Y157) (protein, listed as Lactobacillus leichmannii) MPKKTIYFGAGWFTDRQNKAYKEAMEALKENPTIDLENSYVPLDNQYKGIRVDEHPEYLHDKVWATATYNNDLNGIKTNDIMLGVYIPDEEDVGLGMELGYALSQGKYVLLVIPDEDYGKPINLMSWGVSDNVIKMSQLKDFNFNKPRFDFYEGAVY			0.1 nanomoles of deoxynucleotides synthesized per min per mg of protein			
PDTT0: NDT mutant R13 G92 T93 S123, SEQ ID NO:8 (protein, PDTT0 enzyme mutant) MPKKTIYFGAGWRTDRQNKAYKEAMEALKENPTIDLENSYVPLDNQYKGIRVDEHPEYLHDKVWATATYNNDLNGIKTNDIMLGVYIPDEEGTGLGMELGYALSQGKYVLLVIPDEDYGKPISLMSWGVSDNVIKMSQLKDFNFNKPRFDFYEGAVY	23.7 nanomoles of deoxynucleotides synthesized per min per mg of protein	<0.1 nanomoles of deoxynucleotides synthesized per min per mg of protein	46.3 nanomoles of deoxynucleotides synthesized per min per mg of protein	<0.1 nanomoles of deoxynucleotides synthesized per min per mg of protein	49 nanomoles of deoxynucleotides synthesized per min per mg of protein	Specific activity ([1]; dCDP + A ⇄ dADP + C): <0.1 nanomoles of deoxynucleotides synthesized per min per mg of protein; Specific activity ([1]; dCTP + A ⇄ dATP + C): <0.1 nanomoles of deoxynucleotides synthesized per min per mg of protein
PDTT1: NDT mutant R13 G92 T93 S123 K157, SEQ ID NO:9 (protein, PDTT1 enzyme mutant) MPKKTIYFGAGWRTDRQNKAYKEAMEALKENPTIDLENSYVPLDNQYKGIRVDEHPEYLHDKVWATATYNNDLNGIKTNDIMLGVYIPDEEGTGLGMELGYALSQGKYVLLVIPDEDYGKPISLMSWGVSDNVIKMSQLKDFNFNKPRFDFYEGAVK	5 nanomoles of deoxynucleotides synthesized per min per mg of protein	<0.1 nanomoles of deoxynucleotides synthesized per min per mg of protein	78 nanomoles of deoxynucleotides synthesized per min per mg of protein	<0.1 nanomoles of deoxynucleotides synthesized per min per mg of protein	32 nanomoles of deoxynucleotides synthesized per min per mg of protein	Specific activity ([1]; dADP + C ⇄ dCDP + A): 12 nanomoles of deoxynucleotides synthesized per min per mg of protein; Specific activity ([1]; dADP + Hx ⇄ dIDP + A): <0.1 nanomoles of deoxynucleotides synthesized per min per mg of protein; Specific activity ([1]; dATP + C ⇄ dCTP + A): 1 nanomoles of deoxynucleotides synthesized per min per mg of protein; Specific activity ([1]; dATP + Hx ⇄ dITP + A): <0.1 nanomoles of deoxynucleotides synthesized per min per mg of protein; Specific activity ([1]; dCDP + A ⇄ dADP + C): 31 nanomoles of deoxynucleotides synthesized per min per mg of protein; Specific activity ([1]; dCDP + U ⇄ dUDP + C (U used as acceptor base instead of T)): 6 nanomoles of deoxynucleotides synthesized per min per mg of protein; Specific activity ([1]; dCTP + A ⇄ dATP + C): 10 nanomoles of deoxynucleotides synthesized per min per mg of protein; Specific activity ([1]; dCTP + T ⇄ dTTP + C): 1 nanomoles of deoxynucleotides synthesized per min per mg of protein; Specific activity ([1]; dGDP + A ⇄ dADP + G): 15 nanomoles of deoxynucleotides synthesized per min per mg of protein; Specific activity ([1]; dGTP + A ⇄ dATP + G): 25 nanomoles of deoxynucleotides synthesized per min per mg of protein
PDTM5: NDT mutant Q13 S92 S123, SEQ ID NO:7 (protein, PDTM5 enzyme mutant) MPKKTIYFGAGWQTDRQNKAYKEAMEALKENPTIDLENSYVPLDNQYKGIRVDEHPEYLHDKVWATATYNNDLNGIKTNDIMLGVYIPDEESVGLGMELGYALSQGKYVLLVIPDEDYGKPISLMSWGVSDNVIKMSQLKDFNFNKPRFDFYEGAVY	206 nanomoles of deoxynucleotides synthesized per min per mg of protein	<0.1 nanomoles of deoxynucleotides synthesized per min per mg of protein	296 nanomoles of deoxynucleotides synthesized per min per mg of protein	1.7 nanomoles of deoxynucleotides synthesized per min per mg of protein	81 nanomoles of deoxynucleotides synthesized per min per mg of protein	Specific activity [2, 3]: 47 nanomoles of deoxynucleotides synthesized per min per mg of protein; Specific activity [2, 4]: 78 nanomoles of deoxynucleotides synthesized per min per mg of protein; Specific activity [2, 5]: 19 nanomoles of deoxynucleotides synthesized per min per mg of protein; Specific activity [2, 6]: 26 nanomoles of deoxynucleotides synthesized per min per mg of protein; Specific activity [2, 7]: 15 nanomoles of deoxynucleotides synthesized per min per mg of protein
